Test results published in article PMC11169420, “The kinase ZYG-1 phosphorylates the cartwheel protein SAS-5 to drive centriole assembly in C. elegans” (EMBO Reports, 2024).

T1: SAS-5::His6, full-length, refolded in vitro (C. elegans, UniProt Q20010 1-404, a glycine codon was introduced immediately next to initiator methionine)
T1 construct: SAS-5 of C. elegans, longer isoform SAS-5a, full length; codon-optimised gene in pET21b (NdeI/HindIII); a glycine codon was put next to the initiator methionine; Prey in the pull-downs with GST-ZYG-1 fragment baits; also called full-length SAS-5; SAS-5::6XHis; not shown: His6, C-terminal, kept
T1 sequence (looked up): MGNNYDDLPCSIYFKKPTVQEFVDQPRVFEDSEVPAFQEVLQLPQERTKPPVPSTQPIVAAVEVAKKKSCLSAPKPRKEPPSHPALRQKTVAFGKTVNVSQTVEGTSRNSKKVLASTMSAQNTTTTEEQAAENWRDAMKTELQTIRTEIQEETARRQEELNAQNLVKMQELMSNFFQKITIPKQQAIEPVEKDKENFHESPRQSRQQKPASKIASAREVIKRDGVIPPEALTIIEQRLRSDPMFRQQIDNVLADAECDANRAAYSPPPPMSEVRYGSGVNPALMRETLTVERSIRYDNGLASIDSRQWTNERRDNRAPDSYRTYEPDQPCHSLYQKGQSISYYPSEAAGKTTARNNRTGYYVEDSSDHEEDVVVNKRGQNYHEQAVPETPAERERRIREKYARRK

B1: GST-ZYG-1 cryptic polo box (CPB) fragment spanning 338-564 (domain or fragment, C. elegans, UniProt Q9GT24 338-564, looked up)
chain: GTVPPSREDRNRSQLWPIRMDRLEGQRVCTAGGRYIVELDTRCRFEVAAQGNFVKRILIVEVDEMVQTVYVHRIPDRTVRGRNGEEELITLTNNPFVYTSYSQMPKEVQNDYMRLQKMVAVTISGRVAKVTFRRPSQFPDAQAQLMENGDLRIKLPRSVIVRKMDNGEIFNCIDGIATQKQAVSGITLTKVNEVYKYLIRFEQCLNGMDRGMVCFPIVFSAGTNMVG
notes: ZYG-1 of C. elegans, cryptic polo box (CPB), residues 338-564; also called ZYG-1 CPB; not shown: GST, N-terminal, kept; His6, C-terminal, kept
B2: GST-ZYG-1(1-250) K41M (kinase domain, C-terminal 6X-His) (domain or fragment, C. elegans, UniProt Q9GT24 1-250, looked up)
chain: MSGGKSGSRLSAYSHLKEIGKGGFGVVYAAQRENGEKVAIMRIDKKVPKNRVWTEIQTMKELKKSKYVVEFYEDFVEDGYTYIVMELCEGGSLQAYVREHGALDDATAVHVLRQLISAVSFMHRVNVIHRDLSAGNVFIKDSKKKKMTVKLGDFGLATTLGRGETTCTIVGTPGFIAPQVYDQEYTQSADVYSLGAVLYTMLTARNPPPKGLPPTCGMSPNAARLVEQMMDTDAKKRIPLTQIVLSEFMY
notes: ZYG-1 of C. elegans, kinase domain, residues 1-250, with K41M (used to reduce toxicity to E. coli); also called kinase domain (amino acids 1-250); not shown: GST, N-terminal, kept; His6, C-terminal, kept

Assays:
SAS-6 head domain = SAS-6 head domain (UniProt Q6UVJ0); conditions: cited from earlier work
[1] = molecular target: T1, SAS-5::His6, full-length, refolded in …; test: pull-down; GST-ZYG-1 fragment baits (4.32 mM as printed) on magnetic glutathione beads, blocked with Odyssey blocking buffer; full-length SAS-5 prey (0.2 mM as printed) 1 h at 4 °C; washed with 50 mM Tris pH 8.0, 300 mM NaCl, 5 mM DTT; immunoblot with anti-GST and anti-SAS-5; GST alone as negative control; conditions: both partners purified

Molecule | Kd (SAS-6 head domain) [µM] | binding result [1]
SAS-6 head domain (from UniProt Q6UVJ0) | 75 | –
B1 | – | binds
B2 | – | binds
